# Earlier results as cited in paper PMC3471383.
# Biological target: FcγRI (Homo sapiens) (UniProt P12314)
# Chain of UniProt P12314 (P12314 16-292): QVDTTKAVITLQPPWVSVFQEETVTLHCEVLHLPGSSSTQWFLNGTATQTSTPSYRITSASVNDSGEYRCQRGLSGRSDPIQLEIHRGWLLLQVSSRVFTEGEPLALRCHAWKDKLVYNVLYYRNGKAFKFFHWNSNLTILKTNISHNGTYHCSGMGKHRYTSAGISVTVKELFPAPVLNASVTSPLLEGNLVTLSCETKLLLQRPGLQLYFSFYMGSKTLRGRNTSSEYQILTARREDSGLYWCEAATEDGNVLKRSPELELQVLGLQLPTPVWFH
substance,measurement,value
SAP (from UniProt P02743),Kd,500 nM
